Series [1] concerns the target T1, human TOP3Bcore-Y336F (1-612 aa) (human, UniProt O95985 1-612, Y336F).
T1 construct: DNA topoisomerase 3-beta (TOP3B), human, core, residues 1-612, catalytic tyrosine changed to phenylalanine; also called TOP3B chain of cTOP3B-Y336F; not shown: His8, N-terminal, cleaved; MBP, N-terminal, cleaved
T1 sequence (looked up): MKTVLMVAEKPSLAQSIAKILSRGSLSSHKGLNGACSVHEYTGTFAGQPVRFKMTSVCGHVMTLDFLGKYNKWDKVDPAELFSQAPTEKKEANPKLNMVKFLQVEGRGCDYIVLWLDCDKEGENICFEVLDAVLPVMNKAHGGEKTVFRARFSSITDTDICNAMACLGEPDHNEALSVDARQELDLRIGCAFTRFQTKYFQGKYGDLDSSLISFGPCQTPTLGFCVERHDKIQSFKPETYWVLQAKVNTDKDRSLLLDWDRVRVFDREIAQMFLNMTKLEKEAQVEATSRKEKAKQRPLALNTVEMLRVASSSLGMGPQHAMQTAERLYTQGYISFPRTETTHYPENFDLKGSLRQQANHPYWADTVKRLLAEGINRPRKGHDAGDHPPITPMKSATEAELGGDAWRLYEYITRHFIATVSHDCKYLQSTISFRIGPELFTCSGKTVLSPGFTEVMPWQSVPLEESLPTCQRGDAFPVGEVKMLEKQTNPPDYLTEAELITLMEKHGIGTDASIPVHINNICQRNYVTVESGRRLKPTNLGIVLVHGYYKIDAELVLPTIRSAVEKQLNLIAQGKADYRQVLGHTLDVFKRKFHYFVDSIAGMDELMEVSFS
In words: cryo-EM structure; cTOP3B heterodimer (wild type, Y336F or K10M; 3 mg/ml) mixed with equimolar gapped 43-mer DNA or RNA; 25 mM Bis-Tris pH 6.8, 0.1 M KCl, 0.5 mM MnCl2 (5 mM for the rejoining complexes), 0.1% octyl β-D-glucopyranoside, 4 mM DTT, 2% glycerol; RT. The settings on record: both partners purified.

Series [2] has as its target T2, human TOP3Bcore-K10M (1-612 aa) (human, UniProt O95985 1-612, K10M).
T2 construct: DNA topoisomerase 3-beta (TOP3B), human, core, residues 1-612, rejoining-deficient mutant; In the rejoining complexes Y336 carries the tyrosyl-phosphodiester linkage to the cleaved DNA/RNA (PTR336); also called TOP3B chain of cTOP3B-K10M; not shown: His8, N-terminal, cleaved; MBP, N-terminal, cleaved
T2 sequence (looked up): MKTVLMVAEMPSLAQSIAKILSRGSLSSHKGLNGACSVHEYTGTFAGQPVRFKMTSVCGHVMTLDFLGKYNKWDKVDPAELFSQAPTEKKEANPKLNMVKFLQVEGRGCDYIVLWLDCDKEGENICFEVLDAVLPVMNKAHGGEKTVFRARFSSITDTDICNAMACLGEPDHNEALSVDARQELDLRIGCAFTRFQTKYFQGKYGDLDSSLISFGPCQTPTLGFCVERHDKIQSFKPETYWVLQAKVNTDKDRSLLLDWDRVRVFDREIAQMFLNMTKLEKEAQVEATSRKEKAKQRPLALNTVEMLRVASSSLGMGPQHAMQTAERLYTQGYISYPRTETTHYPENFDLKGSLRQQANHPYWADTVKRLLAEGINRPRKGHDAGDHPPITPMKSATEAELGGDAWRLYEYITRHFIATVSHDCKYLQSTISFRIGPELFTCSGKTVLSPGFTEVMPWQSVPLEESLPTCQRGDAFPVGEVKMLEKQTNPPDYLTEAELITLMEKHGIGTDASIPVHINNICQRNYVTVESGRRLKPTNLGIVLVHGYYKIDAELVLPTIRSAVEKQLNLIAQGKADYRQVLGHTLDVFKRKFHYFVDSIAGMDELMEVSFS
The description is as above. The settings on record: both partners purified.

Series [3] concerns the molecule itself. In words: cryo-EM structure; cTOP3B mixed with a DNA bubble (11-nt strand opposite 13 unmatched nucleotides) at about 1:1; species with two cTOP3B on one DNA bubble, ~4.3 Å map from 63,000 particles.
Series [4] has as its target T3, human full-length TOP3B(Y336F) (human, UniProt O95985 1-862, Y336F).
T3 construct: DNA topoisomerase 3-beta (TOP3B), human, full length; residues 1-717 resolved in the apo map; not shown: His8, N-terminal, cleaved; MBP, N-terminal, cleaved
T3 sequence (looked up): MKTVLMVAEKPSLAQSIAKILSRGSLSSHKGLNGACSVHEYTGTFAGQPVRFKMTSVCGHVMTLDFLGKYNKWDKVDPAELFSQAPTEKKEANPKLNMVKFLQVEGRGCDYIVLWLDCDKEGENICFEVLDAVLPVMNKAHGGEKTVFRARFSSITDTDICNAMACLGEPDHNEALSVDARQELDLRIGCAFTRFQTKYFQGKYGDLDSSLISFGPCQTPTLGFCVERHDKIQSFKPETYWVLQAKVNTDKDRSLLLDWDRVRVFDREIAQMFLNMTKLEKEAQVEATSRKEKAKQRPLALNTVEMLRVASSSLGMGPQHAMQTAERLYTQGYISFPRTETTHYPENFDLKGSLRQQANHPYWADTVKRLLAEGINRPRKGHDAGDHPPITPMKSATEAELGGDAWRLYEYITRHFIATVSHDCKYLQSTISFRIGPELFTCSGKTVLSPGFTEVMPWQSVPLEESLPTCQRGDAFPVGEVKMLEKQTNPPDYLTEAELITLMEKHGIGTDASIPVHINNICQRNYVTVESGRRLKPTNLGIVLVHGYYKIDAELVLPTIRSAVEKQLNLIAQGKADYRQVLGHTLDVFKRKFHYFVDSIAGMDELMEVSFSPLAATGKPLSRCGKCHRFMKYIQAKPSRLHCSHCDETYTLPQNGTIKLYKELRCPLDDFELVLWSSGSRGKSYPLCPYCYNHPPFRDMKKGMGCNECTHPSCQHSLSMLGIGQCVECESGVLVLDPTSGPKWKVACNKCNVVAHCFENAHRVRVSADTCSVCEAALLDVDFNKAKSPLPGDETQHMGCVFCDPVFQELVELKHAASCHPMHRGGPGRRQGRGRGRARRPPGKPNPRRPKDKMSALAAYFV
In words: cryo-EM structure; full-length TOP3B(Y336F)-TDRD3(1-190 aa) with a DNA mismatch bubble or a short R-loop substrate; cryo-EM volumes. The note with it: both partners purified.

B1: N-terminal fragment of human TDRD3 (1-171 aa) containing its DUF domain and OB-fold (domain or fragment, UniProt Q9H7E2 1-171, looked up)
chain: MLRLQMTDGHISCTAVEFSYMSKISLNTPPGTKVKLSGIVDIKNGFLLLNDSNTTVLGGEVEHLIEKWELQRSLSKHNRSNIGTEGGPPPFVPFGQKCVSHVQVDSRELDRRKTLQVTMPVKPTNDNDEFEKQRTAAIAEVAKSKETKTFGGGGGGARSNLNMNAAGNRNR
notes: Tudor domain-containing protein 3 (TDRD3), human, residues 1-171 (DUF domain and OB-fold); also called TDRD3 chain of cTOP3B; OB (in TOP3Bcore-OB); not shown: His8, N-terminal, cleaved; MBP, N-terminal, cleaved
As to B1, the binding result in series [1] and in series [2] was “binds” each time.

B2: human TOP3Bcore (1-612 aa), wild type (domain or fragment, UniProt O95985 1-612, looked up)
chain: MKTVLMVAEKPSLAQSIAKILSRGSLSSHKGLNGACSVHEYTGTFAGQPVRFKMTSVCGHVMTLDFLGKYNKWDKVDPAELFSQAPTEKKEANPKLNMVKFLQVEGRGCDYIVLWLDCDKEGENICFEVLDAVLPVMNKAHGGEKTVFRARFSSITDTDICNAMACLGEPDHNEALSVDARQELDLRIGCAFTRFQTKYFQGKYGDLDSSLISFGPCQTPTLGFCVERHDKIQSFKPETYWVLQAKVNTDKDRSLLLDWDRVRVFDREIAQMFLNMTKLEKEAQVEATSRKEKAKQRPLALNTVEMLRVASSSLGMGPQHAMQTAERLYTQGYISYPRTETTHYPENFDLKGSLRQQANHPYWADTVKRLLAEGINRPRKGHDAGDHPPITPMKSATEAELGGDAWRLYEYITRHFIATVSHDCKYLQSTISFRIGPELFTCSGKTVLSPGFTEVMPWQSVPLEESLPTCQRGDAFPVGEVKMLEKQTNPPDYLTEAELITLMEKHGIGTDASIPVHINNICQRNYVTVESGRRLKPTNLGIVLVHGYYKIDAELVLPTIRSAVEKQLNLIAQGKADYRQVLGHTLDVFKRKFHYFVDSIAGMDELMEVSFS
notes: DNA topoisomerase 3-beta (TOP3B), human, core, residues 1-612; In the DNA post-cleavage complex the catalytic Y336 is covalently linked to the DNA scissile phosphate (PTR336); Tags removed by PreScission Protease before SEC; also called hsTOP3Bcore(1-612AA); TOP3B chain of cTOP3B; not shown: His8, N-terminal, cleaved; MBP, N-terminal, cleaved
As for B2, the binding result in series [3] is recorded as “binds”.

B3: human TDRD3(1-190 aa) (domain or fragment, UniProt Q9H7E2 1-190, looked up)
chain: MLRLQMTDGHISCTAVEFSYMSKISLNTPPGTKVKLSGIVDIKNGFLLLNDSNTTVLGGEVEHLIEKWELQRSLSKHNRSNIGTEGGPPPFVPFGQKCVSHVQVDSRELDRRKTLQVTMPVKPTNDNDEFEKQRTAAIAEVAKSKETKTFGGGGGGARSNLNMNAAGNRNREVLQKEKSTKSEGKHEGVY
notes: Tudor domain-containing protein 3 (TDRD3), human, residues 1-190; not shown: His8, N-terminal, cleaved; MBP, N-terminal, cleaved
For B3, the binding result in series [4] is “binds”.

These data come from publication PMC11743793, “Structural insights into human topoisomerase 3β DNA and RNA catalysis and nucleic acid gate dynamics” (Nature Communications, 2025).
